PMC7020083

Target: hTNFR2-SCP3-Fc (human | ectromelia virus) (UniProt P20333)
Assay: SPR; […], single-cycle; 1:1 Langmuir fit

Chain of UniProt P20333 (P20333 23-257 limits assumed): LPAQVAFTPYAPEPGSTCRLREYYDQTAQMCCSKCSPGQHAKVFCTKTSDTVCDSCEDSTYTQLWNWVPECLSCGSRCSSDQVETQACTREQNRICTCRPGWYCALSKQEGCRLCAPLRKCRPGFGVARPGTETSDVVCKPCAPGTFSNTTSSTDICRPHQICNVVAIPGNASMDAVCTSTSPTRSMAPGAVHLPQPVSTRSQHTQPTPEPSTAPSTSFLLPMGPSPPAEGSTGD

| Molecule | Kd | koff | kon |
| --- | --- | --- | --- |
| human CCL25 (from UniProt O15444 24-150) (ligand) | 6.75 nM | 0.00374 s⁻¹ | 554000 M⁻¹ s⁻¹ |
| human CXCL12 (from UniProt P48061 22-93) (ligand) | 49.8 nM | 0.00825 s⁻¹ | 166000 M⁻¹ s⁻¹ |
| human CXCL13 (ligand) VLEVYYTSLRCRCVQESSVFIPRRFIDRIQILPRGNGCPRKEIIVWKKNKSIVCVDPQAEWIQRMMEVLRKRSSSTLPVPVFKRKIP | 21.4 nM | 0.00155 s⁻¹ | 72000 M⁻¹ s⁻¹ |
